Data from patent publication US10876098B2, “Polynucleotide, host cell and a method to recombinantly produce the protein encoded by said polynucleotide having peroxygenative activity” (CONSEJO SUPERIOR DE INVESTIGACIONES CIENTIFICAS (CSIC), priority 2015, dated 2020).
Substitutions are numbered along the chain they refer to. Numbers in names are those of the source. Each block holds one molecule with its values, some of them ahead of it.

Assays:
[1] = cited from earlier work
[2] = Activity of W24F variants on peroxidase substrates, flask culture supernatants; assay type: biochemical; details: all the tested substrates, relative to respective parental
Description: (§1) FIG. 5 W24F variants obtained by means of directed mutagenesis. A) Model built on the crystal structure of the AaeUPO1 enzyme (PDB access number: 2YOR), comprising the mutations of the JaWa variant as well as the W24F modification with respect to wild AaeUPO1. The model is shown without a surface, with a transparent surface and with an opaque surface, showing position W24. B) Activity of the W24F variants using different substrates with respect to their respective parentals, relativised to the PaDa-I activity. The experiments were carried out using 100 mL flask culture supernatants.

[3] = Activity of W24F variants on peroxygenase substrates, flask culture supernatants; assay type: biochemical; details: relative to respective parental
Description: as §1

Molecule: c1ccc2ccccc2c1 [naphthalene]
- solubility of the naphthalene in water [1]: 31.7 µg/mL

- reduction in the activity on naphthalene and NBD by the W24F mutation [3]: 50%
B1: PaDa-I-W24F: W24F variant obtained from the PaDa-I mutant, SEQ ID NO: 30 (protein)
chain: MKYFPLFPTLVYAVGVVAFPDYASLAGLSQQELDAIIPTLEAREPGLPPGPLENSSAKLVNDEAHPFKPLRPGDIRGPCPGLNTLASHGYLPRNGVATPAQIINAVQEGFNFDNQAAIFATYAAHLVDGNLITDLLSIGRKTRLTGPDPPPPASVGGLNEHGTFEGDASMTRGDAFFGNNHDFNETLFEQLVDYSNRFGGGKYNLTVAGELRFKRIQDSIATNPNFSFVDFRFFTAYGETTFPANLFVDGRRDDGQLDMDAARSFFQFSRMPDDFFRAPSPRSGTGVEVVVQAHPMQPGRNVGKINSYTVDPTSSDFSTPCLMYEKFVNITVKSLYPNPTVQLRKALNTNLDFLFQGVAAGCTQVFPYGRD
- reduction of peroxidase activity by the W24F mutation [2]: 60%

- reduction in the activity on naphthalene and NBD by the W24F mutation [3]: 50%
B2: JaWa-W24F: W24F variant obtained from the JaWa mutant, SEQ ID NO: 32 (protein)
chain: B1 chain with G284D, R300K
- reduction of peroxidase activity by the W24F mutation [2]: 60%
